Reference: the supplement of paper PMC10724198
± gives the standard deviation of the averaged measurements.

System: Saccharomyces cerevisiae
Experiment: protein stability index of tFT-peptide fusion (C-terminal peptide) (PSI (0-1 scale)); higher = more stable (slower turnover)
Details: temperature: 30 C
Procedure: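 MPS profiling in S. cerevisiae of the yeast C-terminome library: the last 12 aa of each annotated ORF are fused to the C-terminus of a sfGFP-mCherry timer, after a GGGS linker. Cells are FACS-sorted into 8 mCherry/sfGFP bins and deep-sequenced. PSI runs from 0 (unstable) to 1 (stable); wild type and das1Δ backgrounds, two technical replicates each.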

[1] = genetic background: das1 deletion

Row | Sequence | protein stability index [1] | protein stability index (genetic background: wild type)
1 | LTARRKNRQQWE [COX23 C-terminal 12 aa] | 0.704 ± 0.022 | 0.692 ± 0.024
2 | AYSLQEGSVVAI [SIF2 C-terminal 12 aa] | 0.7139 ± 0.0064 | 0.696 ± 0.047
3 | QEKEHKKHTVAR [CAJ1 C-terminal 12 aa] | 0.694 ± 0.011 | 0.672 ± 0.014
4 | WNLQTLAADDAF [RPB11 C-terminal 12 aa] | 0.765 ± 0.03 | 0.729 ± 0.049
5 | TYMLNGPAGLLM [YNL165W C-terminal 12 aa] | 0.6979 ± 0.0034 | 0.684 ± 0.024
6 | SRFRTNIAFITQ [YJL015C C-terminal 12 aa] | 0.71 ± 0.012 | 0.70081 ± 0.00066
7 | ASFENETVKANV [RFC3 C-terminal 12 aa] | 0.706 ± 0.019 | 0.704 ± 0.0078
8 | VRKGQEKSKKHS [SEI1 C-terminal 12 aa] | 0.678 ± 0.01 | 0.737 ± 0.06
9 | IAKEHDKIPKFL [INA22 C-terminal 12 aa] | 0.695 ± 0.027 | 0.672 ± 0.06
10 | NISNGSSTQDMK [HPR1 C-terminal 12 aa] | 0.703 ± 0.029 | 0.704 ± 0.065
11 | DNRPIYKRFFSS [HXT11 C-terminal 12 aa] | 0.7072 ± 0.0066 | 0.511 ± 0.018
12 | ASREREKRRQSE [VAN1 C-terminal 12 aa] | 0.724 ± 0.0075 | 0.76362 ± 0.00071
13 | ADDDIFVNGFLR [YHL002C-A C-terminal 12 aa] | 0.719 ± 0.02 | 0.7 ± 0.023
14 | YKQVSSHNSHSQ [CUP2 C-terminal 12 aa] | 0.68 ± 0.034 | 0.691 ± 0.014
15 | ELTSSDDCKDFI [YDR124W C-terminal 12 aa] | 0.7025 ± 0.0028 | 0.652 ± 0.034
16 | VTSIMDMPISRE [MVP1 C-terminal 12 aa] | 0.685 ± 0.019 | 0.684 ± 0.019
17 | EERKDALANNIK [CCS1 C-terminal 12 aa] | 0.6794 ± 0.0017 | 0.688 ± 0.07
18 | EQNLEALAKSFF [BEM4 C-terminal 12 aa] | 0.734 ± 0.023 | 0.697 ± 0.029
19 | ESAKQRRDKQKN [ATG38 C-terminal 12 aa] | 0.7096 ± 0.003 | 0.686 ± 0.02
20 | LCQHYIGWCPFW [TOR1 C-terminal 12 aa] | 0.7144 ± 0.0024 | 0.687 ± 0.011
21 | SIFSYCIIYFIS [YDR524C-A C-terminal 12 aa] | 0.222 ± 0.013 | 0.111 ± 0.02

Row | Sequence | protein stability index [1] | protein stability index (genetic background: wild type)
22 | FVEGGDGKYVLN [YPL113C C-terminal 12 aa] | 0.688 ± 0.016 | 0.676 ± 0.014
23 | AKSEDISCVLII [YPL238C C-terminal 12 aa] | 0.711 ± 0.025 | 0.646 ± 0.022
24 | KYILAWLRKVLL [YFL012W-A C-terminal 12 aa] | 0.651 ± 0.031 | 0.456 ± 0.013
25 | RYAKIHEKHVSA [ASN2 C-terminal 12 aa] | 0.7157 ± 0.0026 | 0.7183 ± 0.0066
26 | WLDCTTLPNYQG [KAP122 C-terminal 12 aa] | 0.7222 ± 0.0061 | 0.707 ± 0.028
27 | SLIPRFDNLLSK [GGC1 C-terminal 12 aa] | 0.7062 ± 0.0052 | 0.732 ± 0.015
28 | CVAGAHFESLLD [YNL144W-A C-terminal 12 aa] | 0.702 ± 0.0074 | 0.744 ± 0.03
29 | LSQRVKKEYAAN [COQ21 C-terminal 12 aa] | 0.708 ± 0.024 | 0.685 ± 0.0074
30 | DDQDAISNQEKK [EIS1 C-terminal 12 aa] | 0.712 ± 0.057 | 0.701 ± 0.038
31 | VEHRYHKSVSRL [YBR012C C-terminal 12 aa] | 0.816 ± 0.046 | 0.759 ± 0.053
32 | KKDFNEDDSLFG [VPS55 C-terminal 12 aa] | 0.722 ± 0.013 | 0.694 ± 0.0072
33 | LCKEELKYQAIQ [YMR099C C-terminal 12 aa] | 0.701 ± 0.037 | 0.6649 ± 0.0029
34 | EGEHEQVLENFQ [GUT1 C-terminal 12 aa] | 0.702 ± 0.014 | 0.676 ± 0.032
35 | RARPRTANRQHM [CCT2 C-terminal 12 aa] | 0.68332 ± 0.0002 | 0.6991 ± 0.005
36 | GGPFPYYFNTFC [YKL169C C-terminal 12 aa] | 0.704 ± 0.028 | 0.53 ± 0.027
37 | DPLYYVYCLHMP [NAT4 C-terminal 12 aa] | 0.6582 ± 0.0016 | 0.643 ± 0.0089
38 | RSIKRPELGLRV [STT3 C-terminal 12 aa] | 0.6814 ± 0.0017 | 0.6862 ± 0.0065
39 | NMEKFVRKCWKD [MKK1 C-terminal 12 aa] | 0.691 ± 0.059 | 0.73796 ± 0.00058
40 | EGWNSDNVYKLS [CYC2 C-terminal 12 aa] | 0.7213 ± 0.0026 | 0.598 ± 0.0034
41 | AQLLAYLMHKSN [LPL1 C-terminal 12 aa] | 0.714 ± 0.013 | 0.252 ± 0.013
42 | LSKRRTRLINFN [PXL1 C-terminal 12 aa] | 0.727 ± 0.013 | 0.538 ± 0.047

Row | Sequence | protein stability index [1] | protein stability index (genetic background: wild type)
43 | NGPVNNNAHLVA [FAT3 C-terminal 12 aa] | 0.689 ± 0.0098 | 0.709 ± 0.049
44 | GAIMGAAAFALL [TOS6 C-terminal 12 aa] | 0.699 ± 0.013 | 0.729 ± 0.053
45 | QLENKLEILKQK [SPC19 C-terminal 12 aa] | 0.699 ± 0.052 | 0.7259 ± 0.0072
46 | MTRLKKLLTLEW [ZIP2 C-terminal 12 aa] | 0.817 ± 0.047 | 0.733 ± 0.046
47 | AYEFDGDKVIVG [RIP1 C-terminal 12 aa] | 0.704 ± 0.018 | 0.6846 ± 0.0025
48 | ANCNTADCLEDH [COT1 C-terminal 12 aa] | 0.6866 ± 0.0051 | 0.708 ± 0.012
49 | GAQPHLYIPDED [USA1 C-terminal 12 aa] | 0.6896 ± 0.0026 | 0.6982 ± 0.003
50 | FRHNRSNKKLGC [GEX1 C-terminal 12 aa] | 0.725 ± 0.025 | 0.7365 ± 0.0018
51 | YKKVQWAKVLEQ [SFG1 C-terminal 12 aa] | 0.709 ± 0.022 | 0.7255 ± 0.0061
52 | KSASSSPAPKDT [TRM10 C-terminal 12 aa] | 0.693 ± 0.013 | 0.708 ± 0.011
53 | EKVRCIKKYQSW [APD1 C-terminal 12 aa] | 0.726 ± 0.0064 | 0.727 ± 0.034
54 | KLDVDDEENEGF [MRD1 C-terminal 12 aa] | 0.684 ± 0.029 | 0.653 ± 0.011
55 | YLLGIYRDNKKC [ALG5 C-terminal 12 aa] | 0.727 ± 0.0028 | 0.6693 ± 0.0016
56 | QYKNKLAKNVVL [ARB1 C-terminal 12 aa] | 0.675 ± 0.012 | 0.6797 ± 0.0058
57 | ENAEKQRTLKKN [RIA1 C-terminal 12 aa] | 0.6927 ± 0.00075 | 0.71 ± 0.045
58 | FVAYTTLTFKKT [YMR001C-A C-terminal 12 aa] | 0.6649 ± 0.0001 | 0.67 ± 0.037
59 | PCYSDAPPRFMC [YER152W-A C-terminal 12 aa] | 0.701 ± 0.034 | 0.287 ± 0.0035
60 | DGPGLNNFGITL [BMT2 C-terminal 12 aa] | 0.6975 ± 0.00032 | 0.699 ± 0.035
61 | VIPHRGKKPVQN [AUS1 C-terminal 12 aa] | 0.68051 ± 0.00019 | 0.681 ± 0.037
62 | LDGSREVGAAKS [UME1 C-terminal 12 aa] | 0.682 ± 0.026 | 0.7109 ± 0.0018
63 | HLENELKDQQEL [ATM1 C-terminal 12 aa] | 0.718 ± 0.0099 | 0.715 ± 0.017

Row | Sequence | protein stability index [1] | protein stability index (genetic background: wild type)
64 | NCEPIATTFRAN [MGL2 C-terminal 12 aa] | 0.7086 ± 0.00098 | 0.681 ± 0.018
65 | SSQQLTLRPPLG [YGL109W C-terminal 12 aa] | 0.6922 ± 0.0068 | 0.669 ± 0.0086
66 | ILDMFAKRWILS [IZH3 C-terminal 12 aa] | 0.697 ± 0.015 | 0.552 ± 0.043
67 | DFLTLVQTNSDT [YPL250W-A C-terminal 12 aa] | 0.712 ± 0.0071 | 0.722 ± 0.038
68 | KHDVLSTLPHNN [SKO1 C-terminal 12 aa] | 0.7043 ± 0.0056 | 0.687 ± 0.011
69 | ILDLDPRTEAYC [YGL260W C-terminal 12 aa] | 0.733 ± 0.02 | 0.691 ± 0.013
70 | SIICIETNKAIR [HPM1 C-terminal 12 aa] | 0.705 ± 0.016 | 0.757 ± 0.099
71 | IYENDPNTKKNN [ERG3 C-terminal 12 aa] | 0.736 ± 0.022 | 0.72 ± 0.049
72 | KDSIKLLDKARL [MSS2 C-terminal 12 aa] | 0.774 ± 0.021 | 0.781 ± 0.085
73 | MASVVKGNATSA [PHO90 C-terminal 12 aa] | 0.69425 ± 0.00061 | 0.688 ± 0.027
74 | INIVVDMLASQH [RMD1 C-terminal 12 aa] | 0.606 ± 0.025 | 0.591 ± 0.011
75 | GCSLQISYARRD [GBP2 C-terminal 12 aa] | 0.706 ± 0.018 | 0.6525 ± 0.0037
76 | IEQSFGVIEYFP [SCW11 C-terminal 12 aa] | 0.717 ± 0.037 | 0.71 ± 0.011
77 | STLSRPFTWEEI [ATG34 C-terminal 12 aa] | 0.715 ± 0.031 | 0.75193 ± 0.00031
78 | STIRRLREMVEA [RPL43A C-terminal 12 aa] | 0.547 ± 0.013 | 0.539 ± 0.028
79 | LIGGNTNDGLSK [CHA4 C-terminal 12 aa] | 0.683 ± 0.023 | 0.722 ± 0.029
80 | NKHDLHLRPGTY [YDR098C-A C-terminal 12 aa] | 0.66848 ± 3.1e-05 | 0.658 ± 0.007
81 | TLEDLGAKVSLE [MNP1 C-terminal 12 aa] | 0.696 ± 0.011 | 0.711 ± 0.031
82 | RRVKSLKTSKKH [PAL2 C-terminal 12 aa] | 0.72 ± 0.017 | 0.686 ± 0.0093
